Several values for one entry are separate records, joined by “and”; a condition that tells them apart may be missing. Equal values may be shown once.
Experiments:
[1] = system: VIM-5; parameters: method as in Garcar et al. (6); settings: previous studies ref Garcar et al. (6), cited from earlier work
[2] = target: T1, VIM-1 (Pseudomonas aeruginosa, UniProt A0A0F7KYQ8); settings: previous studies ref Franceschini et al. (4), cited from earlier work
T1 construct: The N- and C- terminal residues of the mature enzymes are labelled 26; made in house

[3] = target: T2, VIM-5 (Pseudomonas aeruginosa, UniProt A0A0F7KYQ8, A128K/E202A/H201L/K257T/S205R); test: Steady-state kinetics of β-lactam substrate hydrolysis; type: biochemical; settings: 50 mM HEPES pH 7.2, apparent for ampicillin and ceftazidime
T2 construct: His6 with HRV3C cleavage site (pET-28a) (N, cleaved yes); made in house; host or cells: E. coli BL21(DE3)
Experimental: (§1) The hydrolysis of a representative panel of β-lactam substrates was monitored at their respective absorbance wavelengths. The wavelengths and extinction coefficients used were previously described ([34]). The assays were carried out using 50 mM HEPES buffer (pH 7.2) supplemented with 1 μg/ml bovine serum albumin (BSA), 1 μM ZnSO4, and 0.01% Triton X-100. In the case of VIM-1, C-terminally His6-tagged VIM-1 was used for kinetic analyses. Note that no differences were observed between the activities of untagged VIM-1 and C-terminally His6-tagged VIM-1 for the selected antibiotics (data not shown). The initial rates were obtained from the changes in absorbance at various substrate concentrations. Steady-state kinetic parameters (Km and kcat) were determined by fitting the initial velocity data to the Michaelis-Menten equation using GraphPad Prism 5.01 software (see Table S4 in the supplemental material).

[4] = target: T1, VIM-1; test: as above; type: biochemical
Experimental: as §1

[5] = target: T3, VIM-38 (Pseudomonas aeruginosa, UniProt A0A0F7KYQ8, A128K/A265V/E202A/H201L/K257T/S205R); test: as above; type: biochemical; settings: 50 mM HEPES pH 7.2, apparent for ampicillin and ceftazidime
T3 construct: The N- and C- terminal residues of the mature enzymes are labelled 26; His6 with HRV3C cleavage site (pET-28a) (N, cleaved yes); made in house; host or cells: E. coli BL21(DE3)
Experimental: as §1

[6] = system: VIM-2; parameters: method as in Poirel et al. (5); settings: previous studies ref Poirel et al. (5), cited from earlier work
[7] = target: T4, VIM-2 (Escherichia coli, UniProt Q5U7L7); type: biochemical; settings: 50 mM HEPES pH 7.2; apparent for ampicillin and ceftazidime
T4 construct: His6 (N, cleaved yes); made in house
Experimental: as §1

[8] = target: T2, VIM-5; test: Inhibition of enzyme-mediated nitrocefin hydrolysis; type: biochemical
Experimental: (§2) Inhibitors were prepared as reported previously ([36], [41]). Enzyme-mediated hydrolysis of nitrocefin was monitored by determining the changes in absorbance at 495 nm, as previously described ([36], [37]). Residual activities were first determined at a 100 μM inhibitor concentration. […] The residual activities were obtained at increasing inhibitor concentrations (0.2 to 2,000 μM); the data were analyzed using GraphPad Prism 5.01 software.

[9] = target: T1, VIM-1; test: as above; type: biochemical; settings: read-out: IC50 VIM-1 (H224, S228)
Experimental: as §2

[10] = target: T4, VIM-2; test: as above; type: biochemical; settings: read-out: IC50 VIM-2 (Y224, R228)
Experimental: as §2

[11] = target: T3, VIM-38; test: as above; type: biochemical
Experimental: as §2

[12] = target: T5, VIM-4 (Pseudomonas aeruginosa, UniProt A0A0F7KYQ8, S205R); test: as above; type: biochemical; settings: read-out: IC50 VIM-4 (H224, R228); note: 10 min preincubation
T5 construct: His6 (N, cleaved yes); made in house
Experimental: as §2

[13] = system: O=C(Cc1cccs1)N[C@@H]1C(=O)N2C(C(=O)O)=C(/C=C/c3ccc([N+](=O)[O-])cc3[N+](=O)[O-])CS[C@H]12; test: Nitrocefin hydrolysis kinetics before thermal denaturation and after refolding; type: biochemical; settings: other: nitrocefin hydrolysis
Experimental: Circular dichroism (CD) analyses were carried out using a Chirascan CD spectrophotometer (Applied Photophysics) equipped with a Peltier temperature-controlled cell holder. CD measurements were collected in the range of 185 to 260 nm; spectra were baseline corrected and smoothed using a Savitzky-Golay filter. Data were normalized at 207 nm to account for differences in protein concentrations ([38]), and the estimation of secondary structure content was performed with Dichro Web ([39]) using the CONTIN Analysis Programme (reference set 6) ([40]). Melting temperatures (Tm) of the recombinant enzymes were determined by monitoring temperature-induced changes in the CD signal at 222 nm. The temperature was increased by 1°C per min, and the CD signal was recorded at temperatures ranging from 25°C to 92°C. The samples were then cooled from 92°C to 25°C at the same rate, and a CD spectrum of the refolded proteins was determined. The activity of the enzymes was recorded before thermal denaturation and after refolding by monitoring nitrocefin hydrolysis. The thermal denaturation data were fitted to a Boltzmann sigmoidal curve by using GraphPad Prism 5.0 software. CD spectra and thermal denaturation curves are shown in Fig. 2 and in Tables S2 and S3 in the supplemental material.

[14] = system: C[C@@H](O)[C@H]1C(=O)N2C(C(=O)O)=C(SCCN=CN)C[C@H]12; test: Steady-state kinetics of β-lactam substrate hydrolysis; type: biochemical; settings: other: C-terminally His6-tagged VIM-1, 50 mM HEPES pH 7.2, apparent for ampicillin and ceftazidime
Experimental: as §1

[15] = system: C[C@@H](O)[C@H]1C(=O)N2C(C(=O)O)=C(S[C@@H]3CN[C@H](C(=O)N(C)C)C3)[C@H](C)[C@H]12; test: as above; type: biochemical; settings: other: C-terminally His6-tagged VIM-1, 50 mM HEPES pH 7.2, apparent for ampicillin and ceftazidime
Experimental: as §1

[16] = system: CO[C@@]1(NC(=O)Cc2cccs2)C(=O)N2C(C(=O)O)=C(COC(N)=O)CS[C@@H]21; test: as above; type: biochemical; settings: other: C-terminally His6-tagged VIM-1, 50 mM HEPES pH 7.2, apparent for ampicillin and ceftazidime
Experimental: as §1

[17] = system: CC(C)(O/N=C(\C(=O)N[C@@H]1C(=O)N2C(C(=O)[O-])=C(C[n+]3ccccc3)CS[C@H]12)c1csc(N)n1)C(=O)O; test: as above; type: biochemical; settings: other: C-terminally His6-tagged VIM-1, 50 mM HEPES pH 7.2, apparent for ampicillin and ceftazidime
Experimental: as §1

[18] = system: CC(=O)OCC1=C(C(=O)O)N2C(=O)[C@@H](NC(=O)Cc3cccs3)[C@H]2SC1; test: as above; type: biochemical; settings: other: C-terminally His6-tagged VIM-1, 50 mM HEPES pH 7.2, apparent for ampicillin and ceftazidime
Experimental: as §1

[19] = system: O=C(Cc1cccs1)N[C@@H]1C(=O)N2C(C(=O)O)=C(/C=C/c3ccc([N+](=O)[O-])cc3[N+](=O)[O-])CS[C@H]12; test: as above; type: biochemical; settings: other: C-terminally His6-tagged VIM-1, 50 mM HEPES pH 7.2, apparent for ampicillin and ceftazidime
Experimental: as §1

[20] = system: C[C@@H](O)[C@H]1C(=O)N2C(C(=O)O)=C(SCCN=CN)C[C@H]12; test: purified protein, by the assay type; type: biochemical; settings: other: 50 mM HEPES pH 7.2, apparent for ampicillin and ceftazidime
Experimental: as §1

[21] = system: C[C@@H](O)[C@H]1C(=O)N2C(C(=O)O)=C(S[C@@H]3CN[C@H](C(=O)N(C)C)C3)[C@H](C)[C@H]12; test: purified protein, by the assay type; type: biochemical; settings: other: 50 mM HEPES pH 7.2, apparent for ampicillin and ceftazidime
Experimental: as §1

[22] = system: CO[C@@]1(NC(=O)Cc2cccs2)C(=O)N2C(C(=O)O)=C(COC(N)=O)CS[C@@H]21; test: purified protein, by the assay type; type: biochemical; settings: other: 50 mM HEPES pH 7.2, apparent for ampicillin and ceftazidime
Experimental: as §1

[23] = system: CC(C)(O/N=C(\C(=O)N[C@@H]1C(=O)N2C(C(=O)[O-])=C(C[n+]3ccccc3)CS[C@H]12)c1csc(N)n1)C(=O)O; test: purified protein, by the assay type; type: biochemical; settings: other: 50 mM HEPES pH 7.2, apparent for ampicillin and ceftazidime
Experimental: as §1

[24] = system: CC(=O)OCC1=C(C(=O)O)N2C(=O)[C@@H](NC(=O)Cc3cccs3)[C@H]2SC1; test: purified protein, by the assay type; type: biochemical; settings: other: 50 mM HEPES pH 7.2, apparent for ampicillin and ceftazidime
Experimental: as §1

[25] = system: O=C(Cc1cccs1)N[C@@H]1C(=O)N2C(C(=O)O)=C(/C=C/c3ccc([N+](=O)[O-])cc3[N+](=O)[O-])CS[C@H]12; test: purified protein, by the assay type; type: biochemical; settings: other: 50 mM HEPES pH 7.2, apparent for ampicillin and ceftazidime
Experimental: as §1

For C[C@@H](O)[C@H]1C(=O)N2C(C(=O)O)=C(S[C@@H]3CN[C@H](C(=O)N(C)C)C3)[C@H](C)[C@H]12 [Meropenem], the “kcat VIM-5 (previous study)” value [1] is listed as 2.4 s⁻¹, the Km ([1]; read-out: Km VIM-5 (previous study)) is listed as 49 µM and the “kcat VIM-1 (previous study)” value [2] is listed as 13 s⁻¹. For the same compound, the Km ([2]; read-out: Km VIM-1 (previous study)) was 48 µM, the “kcat VIM-5” value [3] was 16 s⁻¹ and 20 s⁻¹ and the Km ([3]; read-out: Mean Km ± SD VIM-5) was 70 ± 10 µM. For the same compound, the “kcat VIM-1” value ([4]; C-terminally His6-tagged VIM-1, 50 mM HEPES pH 7.2, apparent for ampicillin and ceftazidime) was 50 s⁻¹, the “Km for VIM-1 fold higher than that for VIM-2” value ([4]; VIM-1 versus VIM-2) was over 6 fold and the “kcat for VIM-1 fold higher than those for VIM-2” value ([4]; VIM-1 versus VIM-2) was over 7 fold. The “kcat VIM-38” value [5] was 10 s⁻¹, the Km ([5]; read-out: Mean Km ± SD VIM-38) was 30 ± 4 µM and the “kcat VIM-2 (previous study)” value [6] was 1.4 s⁻¹. The Km ([6]; read-out: Km VIM-2 (previous study)) was 5 µM and the “kcat VIM-2” value [7] was 7 s⁻¹.

For O=C(N[C@H](Cc1c[nH]c2ccccc12)C(=O)O)c1ncccc1O [compound 3], the IC50 [8] was 50 µM, the IC50 [9] was 50 µM and the IC50 [10] was 100 µM. It also gave an IC50 [11] of 50 µM and an IC50 [12] of 125 µM.

With VIM-1 (Pseudomonas aeruginosa PAO1) the Km ([13]; after refolding) was 26 ± 3 µM, the Km ([13]; pre-heating) was 20 ± 2 µM and the kcat ([13]; pre-heating) was 7 s⁻¹. It also gave a kcat/Km ([13]; pre-heating) of 300000 M⁻¹ s⁻¹, a Km [14] of 60 ± 10 µM and a kcat [14] of 30 s⁻¹. For the same compound, the kcat/Km [14] was 500000 M⁻¹ s⁻¹, the Km [15] was 130 ± 20 µM and the kcat [15] was 50 s⁻¹. It also gave a kcat/Km [15] of 400000 M⁻¹ s⁻¹, a Km [16] of 170 ± 50 µM and a kcat [16] of 30 s⁻¹. The kcat/Km [16] was 200000 M⁻¹ s⁻¹, the Km [17] was 180 ± 60 µM and the kcat [17] was 3 s⁻¹. For the same compound, the kcat/Km [17] was 20000 M⁻¹ s⁻¹, the Km [18] was 140 ± 10 µM and the kcat [18] was 450 s⁻¹. For the same compound, the kcat/Km [18] was 3.2e+06 M⁻¹ s⁻¹, the Km [19] was 15 ± 1 µM and the kcat [19] was 130 s⁻¹. The kcat/Km [19] was 8.7e+06 M⁻¹ s⁻¹.

In the case of VIM-2 (Escherichia coli), the Km ([13]; after refolding) is reported as 15 ± 1 µM, the kcat ([13]; after refolding) is reported as 130 s⁻¹ and the kcat/Km ([13]; after refolding) is reported as 8.7e+06 M⁻¹ s⁻¹. The Km [20] was 33 ± 4 µM and 30 ± 4 µM, the kcat [20] was 95 s⁻¹ and 100 s⁻¹ and the kcat/Km [20] was 3.3e+06 M⁻¹ s⁻¹. The Km [21] was 20 ± 4 µM, the kcat [21] was 7 s⁻¹ and the kcat/Km [21] was 300000 M⁻¹ s⁻¹. The Km [22] was 40 ± 10 µM, the kcat [22] was 50 s⁻¹ and the kcat/Km [22] was 1.3e+06 M⁻¹ s⁻¹. For the same compound, the Km [23] was 120 ± 20 µM, the kcat [23] was 2 s⁻¹ and the kcat/Km [23] was 20000 M⁻¹ s⁻¹. For the same compound, the Km [24] was 50 ± 6 µM, the kcat [24] was 210 s⁻¹ and the kcat/Km [24] was 4.2e+06 M⁻¹ s⁻¹. For the same compound, the Km [25] was 50 ± 5 µM, the kcat [25] was 510 s⁻¹ and the kcat/Km [25] was 1.02e+07 M⁻¹ s⁻¹.

Source: PMC4775916 (Antimicrobial Agents and Chemotherapy, 2016)
